Article PMC6625990, “Structural underpinnings of Ric8A function as a G-protein α-subunit chaperone and guanine-nucleotide exchange factor” (Nature Communications, 2019)
Numbering of substitutions follows the chain as printed. Names and notes keep the numbering of the source. Read-outs that look alike come from different tables or passages of the source.

B1: Ric8A1–452: bovine Ric8A construct, residues 1–452 (protein)
chain: MEPRAVADALETGEEDVVMEALRAYNRENSQSFTFDDAQQEDRKRLAKLLVSVLEQGLPPSRRVIWLQSIRILSRDRSCLDSFTSRRSLQALACYAGISASQGSVPEPLNMDVVLESLKCLCNLVLSSPVAQALAAEAGLVVRLAERVGLCRQSSFPHDVQFFDLRLLFLLTALRTDVRQQLFQELQGVRLLTRALELTLGMTEGERHPELLPPQETERAMEILKVLFNITFDSIKREVDEEDAALYRHLGTLLRHCVMLAAAGDRTEELHGHAVNLLGNLPVKCLDVLLTLEPHEGSLEFLGVNMDVIRVLLSFMEKRLHQTHRLKESVAPVLSVLTECARMHRPARKFLKAQVLPPLRDVRTRPEVGELLRNKLVRLMTHLDTDVKRVAAEFLFVLCSESVPRFIKYTGYGNAAGLLAARGLMAGGRPEGQYSEDEDTDTDEYKEAKASI
modifications: left off: His6, N-terminal, state not stated
B2: Ric8A1–426: bovine Ric8A construct lacking the C-terminal region, residues 1–426 (protein)
chain: MEPRAVADALETGEEDVVMEALRAYNRENSQSFTFDDAQQEDRKRLAKLLVSVLEQGLPPSRRVIWLQSIRILSRDRSCLDSFTSRRSLQALACYAGISASQGSVPEPLNMDVVLESLKCLCNLVLSSPVAQALAAEAGLVVRLAERVGLCRQSSFPHDVQFFDLRLLFLLTALRTDVRQQLFQELQGVRLLTRALELTLGMTEGERHPELLPPQETERAMEILKVLFNITFDSIKREVDEEDAALYRHLGTLLRHCVMLAAAGDRTEELHGHAVNLLGNLPVKCLDVLLTLEPHEGSLEFLGVNMDVIRVLLSFMEKRLHQTHRLKESVAPVLSVLTECARMHRPARKFLKAQVLPPLRDVRTRPEVGELLRNKLVRLMTHLDTDVKRVAAEFLFVLCSESVPRFIKYTGYGNAAGLLAARGLMA
modifications: left off: His6, N-terminal, state not stated
B3: A173W: A173 mutant of Ric8A1–492, printed A173W in figures and source data, A173F in text (protein)
chain: MEPRAVADALETGEEDVVMEALRAYNRENSQSFTFDDAQQEDRKRLAKLLVSVLEQGLPPSRRVIWLQSIRILSRDRSCLDSFTSRRSLQALACYAGISASQGSVPEPLNMDVVLESLKCLCNLVLSSPVAQALAAEAGLVVRLAERVGLCRQSSFPHDVQFFDLRLLFLLTFLRTDVRQQLFQELQGVRLLTRALELTLGMTEGERHPELLPPQETERAMEILKVLFNITFDSIKREVDEEDAALYRHLGTLLRHCVMLAAAGDRTEELHGHAVNLLGNLPVKCLDVLLTLEPHEGSLEFLGVNMDVIRVLLSFMEKRLHQTHRLKESVAPVLSVLTECARMHRPARKFLKAQVLPPLRDVRTRPEVGELLRNKLVRLMTHLDTDVKRVAAEFLFVLCSESVPRFIKYTGYGNAAGLLAARGLMAGGRPEGQYSEDEDTDTDEYKEAKASINPVTGRVEEKPPNPMEGMTEEQKEHEAMKLVNMFDKLSRH
modifications: left off: His6, N-terminal, state not stated
B4: F169R: F169R mutant of Ric8A1–492 (protein)
chain: B3 chain with F169R, F173A
modifications: left off: His6, N-terminal, state not stated
B5: N123E: N123E mutant of Ric8A1–492 (protein, UniProt Q5E9J8 1-492, looked up, variant N123E)
chain: B3 chain with N123E, F173A
modifications: residues 1-492

Assays:
[1] = DSF thermostability of Ric8A constructs and Ric8A1–492 mutants (protein alone); format: physicochemical, bovine; conditions: for Tm: Sypro Orange, protein alone 0.5 mg/ml, 20 mM Tris-HCl pH 7.5, 150 mM KCl, 5% glycerol, 1 mM TCEP, 1 °C/minute, mean ± SD (n = 3)
Protocol: Stabilities of Ric8A constructs with and without peptide ligands were assessed using differential scanning fluorimetry (DSF), in which an increase in fluorescence of the Sypro Orange dye is measured. Ric8A1–492, Ric8A1–452 and Ric8A1–426 in 20 mM Tris-HCl (pH 7.5) buffer containing 150 mM KCl, 5% glycerol, and 1 mM TCEP with and without peptide were used at a final concentration of 0.5 mg/ml and were supplemented with a 1000-fold dilution of Sypro Orange dye (Invitrogen). Temperature was increased at 1 °C/minute and fluorescence signals were recorded using real-time PCR (C1000 Touch thermal cycler, Bio Rad), with the cycler set to FRET mode and the excitation wavelength set at 450–490 nm and the emission wavelength at 560–580 nm.

Gαi = experiment: GTPγS binding to Gαi (GDP/GTPγS exchange, GEF activity of Ric8A constructs); format: biochemical; conditions: for Rate of GDP/GTPγS exchange reaction on Gαi: same conditions
Protocol: The rates of GTPγS binding to Gαi in the absence or presence of Ric8A1–492 (Ric8A1–452) were measured by following the increase in fluorescence of Gαi tryptophan. Gαi (1 µM) was mixed with GDP (1 µM) in a fluorescence cuvette, in 20 mM Tris-HCl (pH 8.0) buffer containing 150 mM NaCl, 5% glycerol, 1 mM TCEP and 10 mM MgCl2, and incubated for 2 min. The binding reaction was initiated by addition of Ric8A1–492 or Ric8A1–452 (1 µM each) and/or and GTPγs (10 µM). Fluorescence at 340 nm was monitored with the excitation set at 295 nm. Data were fit to an equation for one phase association using the GraphPad Prism 7.05 software.

Gαt = experiment: BLI: Ric8A1–492 and its mutants binding to full-length Avi-tagged Gαt
Protocol: (§1) An Octet RED96 system and streptavidin (SA)-coated biosensors (FortéBio, Menlo Park, CA) were used to measure association and dissociation kinetics for Gα peptides or the full-length Avi-tagged Gαt in relation to Ric8A1–492, Ric8A1–452, and Ric8A1–426. To obtain the Avi-tagged Gαt, Gαt was cloned into modified pET21a vector with the N-terminal His6-tag followed by the Avi tag and TEV cleavage site[59]. The Avi-tagged I340Q/N343H mutant of Gαt was prepared by QuikChange protocol. BL21(DE3) cells for expression of the Avi-tagged Gαt were grown in 2TY media supplemented with biotin (10 mg/liter), induced at OD600 of 0.6 with 50 µM IPTG and further grown overnight at 16 °C. Binding studies were performed in 20 mM Tris, 150 mM KCl, 5% glycerol, 1 mM TCEP, 0.5 mg/ml BSA, pH 8.0. All steps were performed at 26 °C, with biosensors stirred into 0.2 ml of sample in each well at 1000 rpm, and at a data acquisition rate of 5.0 Hz. N-terminally biotinylated Gαt333–350, Gαs363–380, C1 peptide and C2 peptide were loaded onto SA sensors at a concentration of 0.05, 0.05, 0.005, and 0.01 mg/ml for 40–90 seconds. Data for association and dissociation phases of the assay were collected as shown in Fig. 1b and Supplementary Figs. 8, 11, 12, and 14. To correct for baseline drift and non-specific binding, reference sensors lacking bound Gα peptide were used in the BLI assays with Ric8A proteins at the highest concentrations. Kinetic data fitting was performed using FortéBio Data Analysis software 10.0. For each concentration of Ric8A1–492, dissociation rate constant (kd) values were calculated from the corresponding dissociation phases of the curves. These kd values were used to calculate the association rate constant (ka) values from the association phases for each concentration according to the equation1 ka=kobserved-kd∕Ric8A1-492 The average ka and kd were calculated as means of the individual ka and kd values for all curves. Equilibrium dissociation constant KD was calculated as mean kd/mean ka. Steady-state data fitting was performed using the GraphPad Prism 7 software with the equation for one site specific binding.

Gαt333–350 = experiment: BLI: Ric8A1–492 and its mutants binding to biotinylated Gαt333–350; conditions: for binding to Gαt333–350 (in words): BLI; for Kd: BLI steady state
Protocol: as §1

[2] = BLI steady state, source data, experiment 1, read-out: KD (uM), Gαt
[3] = BLI steady state, source data, experiment 2, read-out: KD (uM), Gαt
[4] = BLI steady state, source data, experiment 3, read-out: KD (uM), Gαt
[5] = BLI steady state, source data, mean of replicates, read-out: mean KD, Gαt
[6] = source data, experiment 1, read-out: KD (uM), Gαt333-350
[7] = source data, experiment 2, read-out: KD (uM), Gαt333-350
[8] = source data, experiment 3, read-out: KD (uM), Gαt333-350
[9] = source data, mean of replicates, read-out: Mean KD, Gαt333-350
[10] = DSF, protein alone, source data, mean of replicates
[11] = DSF, protein alone, source data, replicate 1
[12] = DSF, protein alone, source data, replicate 2
[13] = DSF, protein alone, source data, replicate 3
[14] = DSF, protein alone, source data, replicate 4

Row | Molecule | Tm ([1]; DSF) | binding to Gαt (in words) (Gαt; BLI) | Kd (Gαt; [2]) | Kd (Gαt; [3]) | Kd (Gαt; [4]) | Kd (Gαt; [5]) | binding to Gαt333–350 (in words) (Gαt333–350) | Kd (Gαt333–350; [6]) | Kd (Gαt333–350; [7]) | Kd (Gαt333–350; [8]) | Kd (Gαt333–350; [9]) | mean Tm [1, 10] | Tm (C ) [1, 11] | Tm (C ) [1, 12] | Tm (C ) [1, 13] | Tm (C ) [1, 14] | also measured
1 | B1 | 45.5 ± 0.1 °C |  |  |  |  |  |  |  |  |  |  |  |  |  |  |  | Tm ([1]; DSF, listed as Ric8A1-452): 45.5 °C; Rate of GDP/GTPγS exchange reaction on Gαi, mean (Gαi; Gαi 1 µM, GDP 1 µM, Ric8A construct 1 µM, GTPγS 10 µM, 20 mM Tris-HCl pH 8.0, 150 mM NaCl, 5% glycerol, 1 mM TCEP, 10 mM MgCl2, tryptophan fluorescence ex 295 nm, em 340 nm, one phase association fit, mean): 0.03238; Rate of GDP/GTPγS exchange reaction on Gαi (Gαi; replicate 1): 0.03221; Rate of GDP/GTPγS exchange reaction on Gαi (Gαi; replicate 2): 0.04368; Rate of GDP/GTPγS exchange reaction on Gαi (Gαi; replicate 3): 0.02126
2 | B2 | 36.5 ± 1.1 °C |  |  |  |  |  |  |  |  |  |  |  |  |  |  |  | mean Tm ([1]; Suppl Fig 14B DSF, mean of 3 experiments, SD 1.1): 36.5 C
3 | B3 |  | severely reduced affinity | 11.2 µM | 11.5 µM | 15.1 µM | > 10 µM | severely impaired the interaction | 23.8 µM | 26.9 µM | 26.8 µM | > 10 µM | 45.6 C | 45.57 C | 45.54 C | 45.74 C | 45.49 C | Kd (Gαt; BLI steady state, mean ± SD, n = 3, ND – not detectable, read-out: KD (μM) Gαt): > 10 µM; Kd (Gαt; BLI, representative curve (Fig. 3g), read-out: KD, steady-state binding curve, Gαt): > 10 µM; Kd (Gαt333–350; mean ± SD, n = 3, ND – not detectable, read-out: KD (μM) Gαt333–350): > 10 µM
4 | B4 |  | severely reduced affinity | 2.04 µM | 1.84 µM | 1.66 µM | 1.8 µM | severely impaired the interaction | 2.04 µM | 1.89 µM | 1.45 µM | 1.8 µM | 45.6 C | 45.84 C | 45.62 C | 45.65 C | 45.38 C | Kd (Gαt333–350; source data, experiment 4, read-out: KD (uM), Gαt333-350): 1.89 µM
5 | B5 |  | no Gαt binding was detected |  |  |  |  | ablated the binding |  |  |  |  | 46.7 C | 46.78 C | 46.59 C | 46.65 C | 46.83 C | 
